Test results reported in patent US20180311371A1 (Hoffmann-La Roche, published 2018).

T1: human TPBG (trophoblast glycoprotein), full length, cell surface expressed (human, UniProt Q13641 32-420)
T1 sequence: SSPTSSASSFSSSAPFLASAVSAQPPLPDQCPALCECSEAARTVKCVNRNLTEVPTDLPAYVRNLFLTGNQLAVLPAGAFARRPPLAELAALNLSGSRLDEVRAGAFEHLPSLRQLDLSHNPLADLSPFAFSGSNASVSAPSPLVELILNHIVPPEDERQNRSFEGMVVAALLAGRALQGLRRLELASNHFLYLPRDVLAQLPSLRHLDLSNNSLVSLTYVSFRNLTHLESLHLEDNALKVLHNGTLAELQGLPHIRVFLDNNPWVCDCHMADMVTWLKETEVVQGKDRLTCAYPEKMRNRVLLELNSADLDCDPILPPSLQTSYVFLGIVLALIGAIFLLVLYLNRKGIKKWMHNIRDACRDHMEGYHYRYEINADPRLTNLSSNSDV

T2: minipig TPBG, full length, cell surface expressed on CHO-K1 cells (minipig)
T2 chain: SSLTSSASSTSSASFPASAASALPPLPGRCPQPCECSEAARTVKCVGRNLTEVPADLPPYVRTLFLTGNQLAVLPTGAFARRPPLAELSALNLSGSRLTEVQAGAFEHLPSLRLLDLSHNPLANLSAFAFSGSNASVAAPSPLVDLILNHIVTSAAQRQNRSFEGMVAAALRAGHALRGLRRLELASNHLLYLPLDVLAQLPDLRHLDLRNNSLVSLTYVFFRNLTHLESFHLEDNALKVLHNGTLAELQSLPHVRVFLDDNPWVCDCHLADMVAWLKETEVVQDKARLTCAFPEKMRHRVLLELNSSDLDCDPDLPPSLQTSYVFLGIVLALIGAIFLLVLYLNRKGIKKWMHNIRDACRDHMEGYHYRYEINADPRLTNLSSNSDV

T3: huTPBG (recombinant human TPBG immobilised on the Biacore chip) (human, UniProt Q13641 32-355, limits assumed)
T3 construct: also called human TPBG antigen
T3 sequence: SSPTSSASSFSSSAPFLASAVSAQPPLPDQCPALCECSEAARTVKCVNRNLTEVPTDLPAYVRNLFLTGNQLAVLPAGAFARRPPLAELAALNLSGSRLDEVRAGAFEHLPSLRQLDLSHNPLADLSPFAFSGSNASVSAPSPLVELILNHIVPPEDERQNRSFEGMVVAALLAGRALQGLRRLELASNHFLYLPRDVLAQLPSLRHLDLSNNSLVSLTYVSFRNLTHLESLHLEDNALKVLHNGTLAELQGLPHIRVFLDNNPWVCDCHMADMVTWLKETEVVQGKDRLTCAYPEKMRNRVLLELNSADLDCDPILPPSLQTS

T4: recombinant extracellular domain of minipig TPBG (Biacore analyte) (minipig)
T4 chain: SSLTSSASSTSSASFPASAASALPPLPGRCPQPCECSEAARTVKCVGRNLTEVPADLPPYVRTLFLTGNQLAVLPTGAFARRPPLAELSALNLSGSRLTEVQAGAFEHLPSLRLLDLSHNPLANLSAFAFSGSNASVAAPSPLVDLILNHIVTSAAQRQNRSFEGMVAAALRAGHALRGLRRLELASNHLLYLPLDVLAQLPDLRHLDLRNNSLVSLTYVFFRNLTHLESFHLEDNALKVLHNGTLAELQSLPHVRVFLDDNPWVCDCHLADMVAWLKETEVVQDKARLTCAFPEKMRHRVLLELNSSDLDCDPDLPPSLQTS

T5: human TPBG extracellular domain, His6Avi, biotinylated (human, biotinylated)
T5 construct: also called huTPBG; human TPBG-AviHis
T5 chain: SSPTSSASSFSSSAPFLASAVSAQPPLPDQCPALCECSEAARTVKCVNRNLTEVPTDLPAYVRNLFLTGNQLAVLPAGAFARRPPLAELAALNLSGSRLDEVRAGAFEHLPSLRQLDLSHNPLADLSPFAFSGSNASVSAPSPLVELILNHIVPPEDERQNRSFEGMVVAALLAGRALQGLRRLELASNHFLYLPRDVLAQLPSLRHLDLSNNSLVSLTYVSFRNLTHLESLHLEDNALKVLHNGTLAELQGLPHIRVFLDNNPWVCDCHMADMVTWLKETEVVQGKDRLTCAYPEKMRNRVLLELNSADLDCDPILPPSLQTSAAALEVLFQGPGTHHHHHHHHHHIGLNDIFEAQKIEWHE

T6: minipig TPBG extracellular domain, His6Avi, biotinylated (minipig, biotinylated)
T6 construct: also called mpTPBG; minipig TPBG-AviHis
T6 chain: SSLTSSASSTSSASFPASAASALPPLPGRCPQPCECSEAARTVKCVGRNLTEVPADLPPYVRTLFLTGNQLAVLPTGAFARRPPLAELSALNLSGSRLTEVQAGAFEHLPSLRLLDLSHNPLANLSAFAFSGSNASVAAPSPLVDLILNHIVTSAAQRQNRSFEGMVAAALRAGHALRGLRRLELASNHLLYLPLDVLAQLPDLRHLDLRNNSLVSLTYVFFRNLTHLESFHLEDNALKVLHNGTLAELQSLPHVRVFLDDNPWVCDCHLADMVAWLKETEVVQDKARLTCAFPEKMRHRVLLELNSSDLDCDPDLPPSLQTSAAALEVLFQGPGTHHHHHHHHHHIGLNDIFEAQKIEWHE

B1: anti-TPBG antibody 097, Fab fragment (Fab, V domains shown)
VH: EVQLLESGGGLAQPGGSLRLSCAASGFTFNNDAMTWVRQAPGKGLEWVSAISGSGGSTYYADSVKGRFTISRDNSKNTLYLQMNSLRAEDTAVYYCAKGGSWGDWYYYFYPMDVWGQGTTVTVSS
VL: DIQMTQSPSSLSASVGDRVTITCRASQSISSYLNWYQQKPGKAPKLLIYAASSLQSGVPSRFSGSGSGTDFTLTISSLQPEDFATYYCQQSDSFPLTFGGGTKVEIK
notes: also called Fab4
B2: anti-TPBG antibody 051, Fab fragment (Fab, V domains shown)
VH: EVQLLESGGGLLQPGGSLRLSCAASGFTFSIYWMTWVRQAPGKGLEWVSAISGSGGSTYYADSVKGRFTISRDNSKNTLYLQMNSLRAEDTAVYYCAKDYYSNVYWGQGTLVTVSS
VL: DIQMTQSPSSVSASVGDRVTITCRASQGIYSWLAWYQQKPGKAPKLLIYAASSLQSGVPSRFSGSGSGTDFTLTISSLQPEDFATYYCQQSDSPPYTFGQGTKLEIK
notes: also called Fab3
B3: anti-TPBG antibody 051 (mAb) (antibody, V domains shown)
VH: B2 VH
VL: B2 VL

What was measured:
[1] = target: T1, human TPBG (trophoblast glycoprotein), …; assay: cell-based or functional assay
[2] = target: T1, human TPBG (trophoblast glycoprotein), …; assay: cell-based or functional assay; remark: listed apart in the source
[3] = target: T2, minipig TPBG, full length, cell surface …; assay: cell-based or functional assay
[4] = target: T1, human TPBG (trophoblast glycoprotein), …; assay: cell-based or functional assay; remark: listed apart in the source
[5] = target: T1, human TPBG (trophoblast glycoprotein), …; assay: cell-based or functional assay; remark: listed apart in the source
[6] = target: T1, human TPBG (trophoblast glycoprotein), …; assay: cell ELISA on MCF7 cells; titrated from 5 µg/ml
[7] = target: T3, huTPBG (recombinant human TPBG …); assay: SPR Biacore T200; huTPBG amine-coupled, Fab injected
[8] = target: T1, human TPBG (trophoblast glycoprotein), …; assay: flow cytometry on SW620 clone 4 cells; ratio of MFI; replicate 1
[9] = target: T1, human TPBG (trophoblast glycoprotein), …; assay: flow cytometry on SW620 clone 4 cells; ratio of MFI; replicate 2
[10] = target: T4, recombinant extracellular domain of …; assay: SPR Biacore T200; Fab captured by anti-huFab, minipig TPBG injected
[11] = target: T5, human TPBG extracellular domain, …; assay: ELISA; biotinylated TPBG-AviHis on streptavidin plate; Fab titrated from 2 µg/ml
[12] = target: T6, minipig TPBG extracellular domain, …; assay: as above
[13] = target: T7, minipig TPBG extracellular domain, huIgG1-Fc-His (minipig); assay: ELISA; Fc-TPBG coated; mAb titrated from 1 µg/ml
T7 construct: also called Fc-TPBG (mp)

[14] = target: T8, human TPBG extracellular domain, huIgG1-Fc-His6 (human); assay: ELISA; Fc-TPBG coated; mAb titrated from 1 µg/ml
T8 construct: also called Fc-TPBG (hu)

Row | Binder | internalization after 0.5 h, MCF7 cells [1] [%] | internalization after 1.0 h, MCF7 cells [1] [%] | internalization after 2.0 h, MCF7 cells [1] [%] | EC50 cytotoxicity, Fab + anti-kappa-Fab-PE, CHO-K1/human TPBG, replicate 1 [2] [nM] | EC50 cytotoxicity, Fab + anti-kappa-Fab-PE, CHO-K1/human TPBG, replicate 2 [2] [nM] | EC50 cytotoxicity, Fab + anti-kappa-Fab-PE, CHO-K1/minipig TPBG, replicate 1 [3] [nM] | EC50 cytotoxicity, Fab + anti-kappa-Fab-PE, CHO-K1/minipig TPBG, replicate 2 [3] [nM] | EC50 cytotoxicity, Fab-PE sandwich construct, MCF7 [4] [nM] | EC50 cytotoxicity, Fab-PE sandwich construct, H1975, replicate 1 [5] [nM] | EC50 cytotoxicity, Fab-PE sandwich construct, H1975, replicate 2 [5] [nM] | EC50 cytotoxicity, Fab-PE sandwich construct, H1975, replicate 3 [5] [nM] | EC50 [6] [µg/mL] | Kd [7] [nM] | koff [7] [s⁻¹] | kon [7] [M⁻¹ s⁻¹] | Fold change pH 7.2 vs pH 5.5 [8] [fold] | Fold change pH 7.2 vs pH 5.5 [9] [fold] | Kd [10] [nM] | koff [10] [s⁻¹] | kon [10] [M⁻¹ s⁻¹] | also measured
1 | B1 | 28 | 42 | 61 | 0.3 | 0.33 | 2.08 | 2.15 | 0.935 | 0.826 | 0.656 | 0.706 | 0.451 | 0.82 | 0.000814 | 993000 | 1.2 | 1.2 | 1.35 | 0.000254 | 189000 | X-fold higher potency compared to TPBG(H8)PE, MCF7, first experiment [4]: 1.3 fold; X-fold higher potency compared to TPBG(H8)PE, MCF7, second experiment [4]: 2.4 fold; EC50 [11]: 0.0152 µg/mL; EC50 [12]: 0.0436 µg/mL
2 | B2 | 31 | 55 | 72 | 0.28 | 0.38 | 6.18 | 5.04 | 1.35 | 0.522 | 0.397 | 0.527 | 0.0575 | 0.16 | 7.83e-05 | 489000 | 1.1 | 1.1 | 2.05 | 0.000193 | 94000 | X-fold higher potency compared to TPBG(H8)PE, MCF7 [4]: 1.1 fold; EC50 [11]: 0.0181 µg/mL; EC50 [12]: 0.175 µg/mL
3 | B3 |  |  |  |  |  |  |  |  |  |  |  |  |  |  |  |  |  |  |  |  | binding result [13]: binds; binding result [14]: binds
